Four substances from article PMC3699631, “Posttranslational Modifications of the Histone 3 Tail and Their Impact on the Activity of Histone Lysine Demethylases In Vitro” (PLoS ONE, 2013) can be followed below.

“Also recorded” adds a separate entry of the source.

The assay addresses T1, human FL-KDM4C (Homo sapiens, UniProt Q9H3R0).
T1 construct: along with the full length FL- KDM4C and FL-KDM4A using various synthetic histone tail peptides as substrates; His6 (N); FLAG (N); made in house; host or cells: High Five (Trichoplusia ni) insect cells, baculovirus
T1 sequence (Q9H3R0 1-1056): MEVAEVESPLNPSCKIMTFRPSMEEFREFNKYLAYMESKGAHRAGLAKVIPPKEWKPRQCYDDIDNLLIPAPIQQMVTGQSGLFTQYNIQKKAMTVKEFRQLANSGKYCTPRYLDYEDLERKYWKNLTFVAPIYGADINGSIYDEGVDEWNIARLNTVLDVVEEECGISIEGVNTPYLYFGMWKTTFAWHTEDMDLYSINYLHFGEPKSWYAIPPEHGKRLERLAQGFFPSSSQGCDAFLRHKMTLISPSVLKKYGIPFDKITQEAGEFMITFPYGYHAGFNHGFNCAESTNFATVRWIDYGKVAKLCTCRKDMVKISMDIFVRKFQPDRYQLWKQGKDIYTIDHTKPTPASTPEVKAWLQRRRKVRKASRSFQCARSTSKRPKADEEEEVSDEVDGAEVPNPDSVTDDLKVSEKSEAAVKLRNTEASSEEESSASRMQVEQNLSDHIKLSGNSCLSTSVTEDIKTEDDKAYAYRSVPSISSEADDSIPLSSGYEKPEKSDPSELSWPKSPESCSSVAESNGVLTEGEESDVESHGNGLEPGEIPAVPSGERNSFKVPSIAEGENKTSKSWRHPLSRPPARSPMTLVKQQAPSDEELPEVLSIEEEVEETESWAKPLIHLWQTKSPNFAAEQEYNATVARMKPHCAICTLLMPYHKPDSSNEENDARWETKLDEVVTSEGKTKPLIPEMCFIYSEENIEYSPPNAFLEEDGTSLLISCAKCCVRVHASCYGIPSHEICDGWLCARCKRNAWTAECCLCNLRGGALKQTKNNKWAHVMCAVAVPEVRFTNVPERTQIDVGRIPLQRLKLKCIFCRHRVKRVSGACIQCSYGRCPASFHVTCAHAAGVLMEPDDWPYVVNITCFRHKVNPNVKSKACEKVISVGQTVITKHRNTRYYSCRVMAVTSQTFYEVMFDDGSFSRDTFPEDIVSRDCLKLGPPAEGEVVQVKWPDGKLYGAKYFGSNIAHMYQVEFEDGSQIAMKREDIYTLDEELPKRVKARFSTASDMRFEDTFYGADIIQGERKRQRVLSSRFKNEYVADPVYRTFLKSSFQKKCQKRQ
In words: FDH-assay enzyme kinetics of H3 peptide demethylation, full length KDM4C. The format is biochemical. Particulars: for demethylation / catalytic activity (in words) / K m / k cat / k cat /K m: FDH-assay; for K m: 50 mM HEPES (pH 7.5), 50 mM NaCl, 50 µM FeSO4, 500 µM α-KG, 500 µM ascorbate, 2 mM NAD, substrate 10–1000 µM, NADH fluorescence 15–30 minutes; for K m / k cat: triplicate; for k cat: pH 7.5, NADH fluorescence; for k cat /K m: pH 7.5, triplicate. Details: key to K m / k cat / k cat /K m: 0 means no demethylation could be detected. How it is done: The enzyme kinetics were measured using a Formaldehyde DeHydrogenase Assay (FDH-Assay) and the demethylation of substrates was confirmed when possible by MALDI-TOF-MS, see File S1 for details. The test solution contained 50 mM HEPES (pH 7.5), 50 mM NaCl, 50 µM FeSO4, 500 µM α-KG, 500 µM ascorbate, 2 mM NAD, approximately 0.05 unit of FDH and e.g. 4.88 µM KDM4C (enzyme concentration varied between batches). The reference solution was comprised of the same except substrate. The assay was initiated by adding various concentrations of H3 peptide substrates e.g. H3(1–24)K9me3 (10–1000 µM) and the increase in NADH fluorescence was measured over 15–30 minutes in 30 second intervals. Data analysis and kinetic values were obtained using programs Excel and GraphPad Prism® 5.0. For details, see File S1.
The standard deviations for k cat/K m were calculated using the statistic law of propagation of errors. Standard errors for Michaelis-Menten Kinetics were automatically given in GraphPad Prism®, with a 95% confidence interval. All enzyme kinetic curves were done in triplicate unless otherwise stated.
Test for activity of enzyme using the fluorescence FDH assay, determination of Vmax and Km of enzymes with substrate, expression and purification of cc-KDM4A and cc-KDM4C software and parameters for the FDH coupled assay, see Lohse et al.^21
Recombinant baculoviridae encoding the full Open Reading Frame (ORF) of FL-KDM4A and FL-KDM4C were generously donated from the Biotech Research and Innovation Centre (BRIC), University of Copenhagen, Denmark. Recombinant protein was expressed by adding High Titer Stocks to High Five (Trichopulsia ni) insect cells in suspension culture. The cell cultures were harvested by centrifugation after ~ 60 hours and the cells were resuspended in hypotonic buffer (25 mM Hepes-KOH, pH 7.7, 1.5 mM MgCl, 5 mM KCl) supplemented with one protease inhibitor cocktail tablet per 500 ml expression (Roche, EDTA-free). The resuspended cells were frozen at -20 °C.
Both proteins were purified by IMAC using Talon FF (Clontech) cobalt resin according to the following protocol; resuspended cells were thawed on ice, 100 ml hypotonic buffer was added per 500 ml expression volume and the cells were incubated with stirring for 30 min. at 4 °C, followed by a brief (30 s per 500 ml culture volume) sonication. β-mercaptoethanol (BME, 2 mM final concentration), Triton X-100 (0.2 % final concentration) and NaCl (300 mM final concentration) were added and the cell suspension was stirred for another 30 min at 4 °C. The lysate was cleared by centrifugation at 50.000 g for 60 minutes. The cleared lysates were adjusted to 5 mM imidazole and incubated with Talon resin (1 ml /500 ml expression) for 60 minutes. The resin was allowed to sediment, the lysate removed and the resin was transferred to PD-10 gravity flow columns (GE Healthcare). The resin was washed with 10 column volumes of binding buffer (50 mM Hepes-KOH, pH 7.7, 300 mM NaCl, 5 mM imidazole, 10% glycerol, 0.05 % Triton X-100, 2 mM BME) and eluted with 2 x 2.5 ml elution buffer (50 mM Hepes-KOH, pH 7.7, 300 mM NaCl, 100 mM imidazole, 10 % glycerol, 0.05 % Triton X-100, 2 mM BME). Each eluted fraction has its buffer changed to 50 mM Hepes pH 7.5, 300 mM NaCl, 10 % glycerol using a PD-10 desalting column. The protein was concentrated to 6-7 mg/ml (FL-KDM4A) or 10-12 mg/ml (FL-KDM4C). Despite the buffer change it is likely that small amounts of Triton X-100 remained in the protein samples. Triton X-100 has a significant absorbance at 280 nm, so the protein concentration was determined by Bradford assay using a BSA standard curve. The protein purity was approximately 70 % as judged from SDS-PAGE. The concentrated protein was aliquoted and stored at -80 °C until assays were performed.
The standard deviations for kcat/ Km were calculated using the statistic law of propagation of errors. […]

[1] abbreviates: SD by propagation of errors, unit: (min^−1 * µM^−1) * 10^3.

As for “H3(1–24)K4me3K9me3: bis-tri-methylated substrate, trimethylated K4 in combination with H3K9me3”, the “demethylation / catalytic activity (in words)” value is “a small difference in activity between H3(1–24)K9me3 and H3(1–24)K4me3-K9me3”; the K m was found to be 42±3; the k cat was found to be 1.1±0.2. Also, the “k cat /K m” value under setting [1] amounted to 24±3. Further, the “fold increase in k cat/K m” value (compared to H3(1–24)K9me3) was found to be 2 fold. Where the note is “figures”, the “k cat /K m” value is 24 ± 3 min^-1 * μM^-1 * 10^3.
With “H3(1–24)K9me2: truncated histone tail, 24 first amino acids from the N-terminus of H3, dimethylated lysine 9”, the K m is 79±10. Under setting [1], the “k cat /K m” value was determined as 1.3±0.2. The “k cat /K m” value (figures) is reported as 2 ± 0.4 min^-1 * μM^-1 * 10^3.
As for “H3(1–24)K9me3: truncated histone tail, 24 first amino acids from the N-terminus of H3, trimethylated lysine 9; control peptide”, the K m is 57±5 and the k cat worked out at 0.7±0.1. Further, the “demethylation / catalytic activity (in words)” value (listed as H3K9me3) was “preference for the H3K9me3 over the H3K9me2; also recorded: an order of magnitude higher activity towards trimethylated H3K9me3 compared to dimethylated H3K9me2 substrates”. For the same substance, under setting [1], the “k cat /K m” value is recorded as 12±2. Besides, the “k cat /K m” value (figures) amounted to 12 ± 2 min^-1 * μM^-1 * 10^3.
“H3(1–24)K9me3T11(ph): H3(1–24)K9me3 with phosphorylation of threonine 11”: the “demethylation / catalytic activity (in words)” value was “no detectable turnover”, the K m came to 0 and the k cat is reported as 0. Also, under setting [1], the “k cat /K m” value is listed as 0.
